According to the supplement of paper PMC5998384:

How the values were obtained:
HeLa Kyoto [1] = experiment: thermal stability score vs G1/S (z-score of summed log2 fold changes over temperatures); higher = more thermally stable than in G1/S
HeLa Kyoto [2] = experiment: solubility in G1/S (NP-40 vs SDS abundance) (log2 ratio); higher = more soluble; conditions: cell cycle stage: G1/S
HeLa Kyoto [3] = experiment: solubility change mitosis vs G1/S (difference of NP-40 vs SDS log2 ratios) (log2 ratio difference); higher = more soluble in mitosis
HeLa Kyoto [4] = experiment: melting temperature (median over replicates), in situ; higher = more thermally stable
[5] = cell cycle stage: early G1 (4.5 h after nocodazole release)
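For melting temperature (median over replicates), in situ in this document: HeLa Kyoto cells synchronized by double thymidine or nocodazole block, proteins quantified by TMT10plex mass spectrometry, three independent biological replicates.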
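For solubility change mitosis vs G1/S (difference of NP-40 vs SDS log2 ratios) in this document: synchronized HeLa Kyoto cells (double thymidine block for G1/S, nocodazole release for mitosis), protein amounts in NP-40 versus SDS lysates quantified by mass spectrometry, three biological replicates.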
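For solubility in G1/S (NP-40 vs SDS abundance) in this document: HeLa Kyoto cells arrested at G1/S by double thymidine block, proteins quantified by TMT10plex mass spectrometry in mild NP-40 versus SDS extracts, three biological replicates.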
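For thermal stability score vs G1/S (z-score of summed log2 fold changes over temperatures) in this document: synchronized HeLa Kyoto cells, proteins quantified by TMT10plex mass spectrometry, three biological replicates, mitosis taken 0.5 h after nocodazole release, G1/S directly after double thymidine block.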

Question: Which results are given for “MELGSCLEGGREAAEEEGEPEVKKRRLLCVEFASVASCDAAVAQCFLAENDWEMERALNSYFEPPVEESALERRPETISEPKTYVDLTNEETTDSTTSKISPSEDTQQENGSMFSLITWNIDGLDLNNLSERARGVCSYLALYSPDVIFLQEVIPPYYSYLKKRSSNYEIITGHEEGYFTAIMLKKSRVKLKSQEIIPFPSTKMMRNLLCVHVNVSGNELCLMTSHLESTRGHAAERMNQLKMVLKKMQEAPESATVIFAGDTNLRDREVTRCGGLPNNIVDVWEFLGKPKHCQYTWDTQMNSNLGITAACKLRFDRIFFRAAAEEGHIIPRSLDLLGLEKLDCGRFPSDHWGLLCNLDIIL [TDP2]”?
Answer: thermal stability score (HeLa Kyoto [1]; [5]): -0.731; thermal stability score (HeLa Kyoto [1]; cell cycle stage: mitosis): -0.039; solubility in G1/S (log2) (HeLa Kyoto [2]): 0.116; solubility change mitosis (log2) (HeLa Kyoto [3]): -0.193; melting temperature (HeLa Kyoto [4]; cell cycle stage: G1/S): 49.7 °C; melting temperature (HeLa Kyoto [4]; cell cycle stage: mitosis): 51.7 °C

Question: Which thermal stability score (HeLa Kyoto [1]; [5]) does the source give for “MGSSKKVTLSVLSREQSEGVGARVRRSIGRPELKNLDPFLLFDEFKGGRPGGFPDHPHRGFETVSYLLEGGSMAHEDFCGHTGKMNPGDLQWMTAGRGILHAEMPCSEEPAHGLQLWVNLRSSEKMVEPQYQELKSEEIPKPSKDGVTVAVISGEALGIKSKVYTRTPTLYLDFKLDPGAKHSQPIPKGWTSFIYTISGDVYIGPDDAQQKIEPHHTAVLGEGDSVQVENKDPKRSHFVLIAGEPLREPVIQHGPFVMNTNEEISQAILDFRNAKNGFERAKTWKSKIGN [PIR]” here?
Answer: The thermal stability score was -1.49.

Question: And the thermal stability score (HeLa Kyoto [1]; cell cycle stage: mitosis)?
Answer: The thermal stability score was -1.89.

Question: What about the “solubility in G1/S (log2)” value (HeLa Kyoto [2]) of the same substance?
Answer: Its value is 0.288.

Question: And the “solubility change mitosis (log2)” value (HeLa Kyoto [3])?
Answer: The value was -0.0437.

Question: And the melting temperature (HeLa Kyoto [4]; cell cycle stage: G1/S)?
Answer: Its melting temperature is 51.8 °C.

Question: And the melting temperature (HeLa Kyoto [4]; cell cycle stage: mitosis)?
Answer: Its melting temperature is 51.6 °C.

Question: For NFIA, which thermal stability score (HeLa Kyoto [1]; [5]) is on record?
Answer: Its thermal stability score is 0.325.

Question: What about the thermal stability score (HeLa Kyoto [1]; cell cycle stage: mitosis) of the same substance?
Answer: The thermal stability score was 1.68.

Question: And the “solubility in G1/S (log2)” value (HeLa Kyoto [2])?
Answer: Its value is -0.00202.

Question: What about the “solubility change mitosis (log2)” value (HeLa Kyoto [3]) of the same substance?
Answer: The value was 0.0442.

Question: What about the melting temperature (HeLa Kyoto [4]; cell cycle stage: G1/S) of the same substance?
Answer: Its melting temperature is 59 °C.

Question: What about the melting temperature (HeLa Kyoto [4]; cell cycle stage: mitosis) of the same substance?
Answer: The melting temperature was 62.1 °C.

Question: For “MARAMAAAWPLLLVALLVLSWPPPGTGDVVVQAPTQVPGFLGDSVTLPCYLQVPNMEVTHVSQLTWARHGESGSMAVFHQTQGPSYSESKRLEFVAARLGAELRNASLRMFGLRVEDEGNYTCLFVTFPQGSRSVDIWLRVLAKPQNTAEVQKVQLTGEPVPMARCVSTGGRPPAQITWHSDLGGMPNTSQVPGFLSGTVTVTSLWILVPSSQVDGKNVTCKVEHESFEKPQLLTVNLTVYYPPEVSISGYDNNWYLGQNEATLTCDARSNPEPTGYNWSTTMGPLPPFAVAQGAQLLIRPVDKPINTTLICNVTNALGARQAELTVQVKEGPPSEHSGISRNAIIFLVLGILVFLILLGIGIYFYWSKCSREVLWHCHLCPSSTEHASASANGHVSYSAVSRENSSSQDPQTEGTR [PVR]”, which thermal stability score (HeLa Kyoto [1]; [5]) is on record?
Answer: The thermal stability score was -1.4.

Question: What about the thermal stability score (HeLa Kyoto [1]; cell cycle stage: mitosis) of the same substance?
Answer: The thermal stability score was -2.91.

Question: And the “solubility in G1/S (log2)” value (HeLa Kyoto [2])?
Answer: The value was 0.109.

Question: And the “solubility change mitosis (log2)” value (HeLa Kyoto [3])?
Answer: The value was 0.164.

Question: What about the melting temperature (HeLa Kyoto [4]; cell cycle stage: G1/S) of the same substance?
Answer: Its melting temperature is 55 °C.

Question: What about the melting temperature (HeLa Kyoto [4]; cell cycle stage: mitosis) of the same substance?
Answer: Its melting temperature is 55 °C.

Question: “MVFPAKRFCLVPSMEGVRWAFSCGTWLPSRAEWLLAVRSIQPEEKERIGQFVFARDAKAAMAGRLMIRKLVAEKLNIPWNHIRLQRTAKGKPVLAKDSSNPYPNFNFNISHQGDYAVLAAEPELQVGIDIMKTSFPGRGSIPEFFHIMKRKFTNKEWETIRSFKDEWTQLDMFYRNWALKESFIKAIGVGLGFELQRLEFDLSPLNLDIGQVYKETRLFLDGEEEKEWAFEESKIDEHHFVAVALRKPDGSRHQDVPSQDDSKPTQRQFTILNFNDLMSSAVPMTPEDPSFWDCFCFTEEIPIRNGTKS [AASDHPPT]” was tested. Which thermal stability score (HeLa Kyoto [1]; [5]) did it give?
Answer: The thermal stability score was 0.145.

Question: And the thermal stability score (HeLa Kyoto [1]; cell cycle stage: mitosis)?
Answer: Its thermal stability score is -0.453.

Question: And the “solubility in G1/S (log2)” value (HeLa Kyoto [2])?
Answer: The value was 0.0817.

Question: And the “solubility change mitosis (log2)” value (HeLa Kyoto [3])?
Answer: The value was -0.124.

Question: And the melting temperature (HeLa Kyoto [4]; cell cycle stage: G1/S)?
Answer: The melting temperature was 52.3 °C.

Question: And the melting temperature (HeLa Kyoto [4]; cell cycle stage: mitosis)?
Answer: Its melting temperature is 52.4 °C.
